Molecular target: T1, SDS22 (tag-free, purified) (human, UniProt Q15435 1-360)
T1 construct: SDS22 (PPP1R7), human, wild type; also called SDS22-WT; untagged SDS22; source: HEK293T, transiently transfected; EGFP-SDS22 purified on EGFP-trap beads, tag-free after TEV protease
T1 sequence (looked up): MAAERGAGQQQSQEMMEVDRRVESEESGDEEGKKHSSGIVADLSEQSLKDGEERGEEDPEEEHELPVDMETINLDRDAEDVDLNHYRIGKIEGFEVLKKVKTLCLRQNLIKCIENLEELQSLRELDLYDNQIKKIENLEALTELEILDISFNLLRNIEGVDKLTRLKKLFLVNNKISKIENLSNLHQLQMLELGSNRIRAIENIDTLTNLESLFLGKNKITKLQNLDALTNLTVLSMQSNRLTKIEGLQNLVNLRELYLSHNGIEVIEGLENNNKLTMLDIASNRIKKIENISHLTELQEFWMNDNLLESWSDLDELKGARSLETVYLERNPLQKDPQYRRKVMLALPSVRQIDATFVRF
Assay: ITC; 5 μM SDS22 in the cell titrated with 50 μM His-I3 (20 injections), 22 °C, MicroCal iTC200; binding curves not saturated
Conditions: both partners purified

B1: His-I3 (natural protein, human, UniProt O60927 1-126, looked up)
chain: MAEAGAGLSETVTETTVTVTTEPENRSLTIKLRKRKPEKKVEWTSDTVDNEHMGRRSSKCCCIYEKPRAFGESSTESDEEEEEGCGHTHCVRGHRKGRRRATLGPTPTTPPQPPDPSQPPPGPMQH
notes: source: E. coli BL21 (pET16b), purified (Ni2+-Sepharose)
Question: How did the Kd turn out when B1 was run?
Answer: 7.6 µM

From article PMC11199634 (Nature Communications, 2024)
